Results from patent publication US20090291088A1, “THERAPEUTIC COMBINATIONS OF ANTI-IGF-1R ANTIBODIES AND OTHER COMPOUNDS” (Biogen Idec MA Inc., priority 2008, published 2009).

Columns and labels:
human INSR(28-956)-His10 = biological target: T1, human INSR(28-956)-His10 (Homo sapiens, UniProt P06213); assay: SPR, receptor ectodomain injected over immobilized antibodies: INSR; assay type: binding; conditions: full-length fully human antibodies; up to 2 μM receptor
T1 construct: human INSR(28-956)-His10 (INSR (R&D systems)); purchased R & D Systems 1544-IR
Protocol: SPR analyses were performed using a Biacore3000. The instrument was set to 25° C. and assays performed with running buffer HBS-EP pH 7.2 purchased from Biacore (Biacore, Cat. No. BR-1001-88). The fully human antibodies, M13-C06, M14-C03, and M14-G11 were immobilized to ˜10,000 RU on Biacore CM5 Research Grade Sensor Chip surfaces using the standard NHS/EDC-amine reactive chemistry according to protocols supplied by Biacore. For immobilization, the antibodies were diluted to 40 μg/mL in a 10 mM Acetate pH 4.0 buffer. To investigate the relative kinetics of association and dissociation of the full-length ectodomains of human IGF-1R(1-902)-His10 (hIGF-1R-His10 (R&D systems)) and human INSR(28-956)-His10 (INSR (R&D systems)) to each of the human antibodies, increasing concentrations of hIGF-1R-His10 or INSR were injected over the sensorchip surfaces. The hIGF-1R-His10 concentration series ranged from 1.0 nM to 250 nM while the INSR concentrations ranged from 1.0 nM to 2 μM. All antibody surfaces were reliably regenerated with 100 mM Glycine, pH 2.0. […] Flow rates were 20 μl/min. (“His10” denotes a 10-residue histidine tag on the C-terminus of the constructs.)

hIGF-1R(1-462)-Fc = biological target: T2, hIGF-1R(1-462)-Fc (Homo sapiens, UniProt P08069); assay: SPR binding of immobilized antibodies to truncated hIGF-1R(1-462)-Fc versus hIGF-1R(1-903)Fc; conditions: surface immobilized antibody
T2 construct: host or cells: CHO
Text: Next, we investigated whether M13-C06 binds the putative ligand binding domains of IGF-1R (L1-CR-L2). We generated a truncated version of the receptor containing the N-terminal three domains (residues 1-462) fused to an IgG1-Fc and compared its ability to bind M13-C06, M14-C03, and M14-G11 to that of the full-length receptor ectodomain construct, hIGF-1R-Fc, using surface plasmon resonance (SPR).

hIGF-1R-Fc [1] = biological target: T3, hIGF-1R-Fc (Homo sapiens, UniProt P08069); assay: Antibody cross-blocking ELISA with biotinylated M13-C06 or M14-G11; assay type: binding
T3 construct: (3) human IGF-1R(1-903)-Fc (hIGF-1R-Fc, Biogen Idec); host or cells: CHO
Protocol: The ability of various antibodies to block M13-C06 or M14-G11 was determined using biotinylated version of both antibodies and hIGF-1R-Fc. Briefly, 50 μL of 2 μg/mL hIGF-1R-Fc in 1×PBS were coated per well of a 96-well clear MaxiSorp plate (Nunc) for 2 hours at room temperature (RT, no shaking). Plates were washed with 1×PBS and blocked overnight at 2-8° C. using a PBS/1% BSA solution. Plates were washed and incubated with a 100 μL mixture of biotinylated M13-C06 or biotinylated M14-G11 (80 ng/mL) and inhibitor antibody for 1 hour at RT. Inhibitor antibodies were serially diluted (5-fold dilutions) from 40 μg/mL to 3 ng/mL. M13-C06 and M14-G11 were biotinylated using EZ-Link Sulfo-NHS-LC-Biotin according to protocol provided by the manufacturer (Pierce Cat. No. 21335). A control was also performed by serial dilution of a non-IGF-1R specific IgG4 isotype control antibody with biotinylated M13-C06 or biotinylated M14-G11. Plates were washed and shaken for 1 hour at RT with 100 μL/well streptavidin-HRP (1:4000 dilution into blocking buffer, Southern Biotech Cat. No. 7100-05). Plates were washed and 100 μL/well SureBlue Reserve TMB Microwell Peroxidase Substrate (KPL, Cat. No. 53-00-01) was added to the wells. Detection of the presence of biotinylated M13-C06 or M14-G11 was performed by reading the absorbance at 650 nm every 5 minutes using a Wallac 1420-041 Multilabel Counter plate reader.

hIGF-1R-Fc [2] = biological target: T3, hIGF-1R-Fc; assay: IGF-1 and IGF-2 blocking ELISA-based competition assay; assay type: binding
Protocol: hIGF-1R-Fc was biotinylated using EZ-Link Sulfo-NHS-LC-Biotin according to the protocol provided by the manufacturer (Pierce Cat. No. 21335). Biotinylated human IGF-1R-Fc at 5 μg/ml was added to the wells of SigmaScreen streptavidin-coated 96-well plates (Sigma, Cat. No. M5432-5EA; Sigma-Aldrich Corp. (St. Louis, Mo., USA)) at 100 μL/well and incubated overnight at 2-8° C. The plates were then washed four times with 200 μL/well PBST. […] Dilutions were made from 1.3 μM to 10 pM for M13-C06 and M14-C03, from 5.2 μM to […] for M14-G11, and from 2.6 μM to 10 pM for both P1E2 and αIR3. Human IGF-2 His was prepared at 320 nM in PBST, 1.0 mg/ml BSA. The antibodies were serial diluted (from […] to 5 pM for M13-C06 and M14-C03, from 5.2 μM to 5 pM for M14-G11 and αIR3, and from 5.2 μM to 20 pM for P1E2) using a solution of 320 nM IGF-2 His. The dilutions were added to the plates in duplicate at 100 μL/well and the plates were incubated at RT for 1 hour. The plates were then washed four times with 200 μL/well PBST. An HRP-conjugated anti-Histag antibody (Penta-His HRP Conjugate, QIAGEN, Cat. No. 1014992) was diluted 1:1000 in PBST and added to plates at 100 μL/well, and the plates were incubated at RT for one hour. […] The absorbance of each well was determined at 450 nm, and the results were normalized and plotted against the log of antibody concentration.

B1: M14-C03: anti-IGF-1R antibody, allosteric blocker of IGF-1 and IGF-2 (antibody, V domains shown)
VH: EVQLLESGGGLVQPGGSLRLSCAASGFTFSKYMMSWVRQAPGKGLEWVSYISPSGGLTWYADSVKGRFTISRDNSKNTLYLQMNSLRAEDTAVYYCARDGARGYGMDVWGQGTTVTVSS
VL: DIQMTQSPATLSLSPGERATLSCRASQSVSSYLAWYQQKPGQAPRLLIYDASNRATGIPARFSGSGSGTDFTLTISSLEPEDFAVYYCQQRSNWPPEVTFGPGTKVDIK
modifications: Antibody variable heavy chain sequence; Antibody variable light chain sequence
Human INSR(28-956)-His10
  binding of INSR to immobilized antibody surface: little binding activity
hIGF-1R(1-462)-Fc
  binding to truncated hIGF-1R(1-462)-Fc compared with full-length hIGF-1R-Fc: dramatically reduced
hIGF-1R-Fc [1]
  M13-C06 cross-blocking: +++++ (+++++ = antibody binding competition relative to itself (90-100%))
hIGF-1R-Fc [2]; 320 nM IGF-1 His
  blocking of IGF-1 binding to IGF-1R: block both IGF-1 and IGF-2 binding to IGF-1R
hIGF-1R-Fc [2]; 320 nM IGF-2 His
  blocking of IGF-2 binding to IGF-1R: block both IGF-1 and IGF-2 binding to IGF-1R
